Residue numbers refer to the chain shown, from its start. Numbers in names are those of the source.
What was measured:
[1] = molecular target: T1, rHuman HGF R/c-MET/Fc Chimera, CF (R&D Systems Cat#358-MT/CF) (human, UniProt P08581 25-932); test: ECL Multispot (MSD) assay, antigen spotted on plate, 10 nM Fab; blank spot 338
T1 construct: Bought recombinant Fc chimera; also called HGF R/Fc; hepatocyte growth factor receptor; Fc part of the bought chimera not given

[2] = molecular target: T2, rHuman ErbB2/Fc Chimera, CF (R&D Systems Cat#1129-ER) (human, UniProt P04626 23-652); test: as above
T2 construct: Bought recombinant Fc chimera; also called human epidermal growth factor 2 receptor; Fc part of the bought chimera not given

[3] = molecular target: T3, rHuman IGF-1 sR, CF (R&D Systems Cat#391-GR) (human, UniProt P08069 31-932); test: as above
T3 construct: Bought soluble receptor; also called insulin-like growth factor-1 soluble receptor

[4] = molecular target: T4, rHuman P-Cadherin/Fc Chimera, CF (R&D Systems Cat#861-PC) (human, UniProt P22223 108-654); test: as above
T4 construct: Bought recombinant Fc chimera; Fc part of the bought chimera not given

[5] = molecular target: T5, rHuman EGF R/Fc Chimera, CF (R&D Systems Cat#344-ER) (human, UniProt P00533 25-645); test: as above
T5 construct: Bought recombinant Fc chimera; also called epidermal growth factor receptor; Fc part of the bought chimera not given

[6] = molecular target: T6, Recombinant Human DLL4 (R&D Systems Cat#1506-D4/CF) (human, UniProt Q9NR61 27-524); test: as above
T6 construct: Bought recombinant protein; also called delta-like protein 4; rHuman DLL4

[7] = molecular target: T1, rHuman HGF R/c-MET/Fc Chimera, CF (R&D …); test: ECL Multispot (MSD) assay, antigen spotted on plate, 10 nM Fab; blank spot 407
[8] = molecular target: T2, rHuman ErbB2/Fc Chimera, CF (R&D …); test: as above
[9] = molecular target: T3, rHuman IGF-1 sR, CF (R&D Systems …); test: as above
[10] = molecular target: T4, rHuman P-Cadherin/Fc Chimera, CF (R&D …); test: as above
[11] = molecular target: T5, rHuman EGF R/Fc Chimera, CF (R&D …); test: as above
[12] = molecular target: T6, Recombinant Human DLL4 (R&D Systems …); test: as above
[13] = molecular target: T1, rHuman HGF R/c-MET/Fc Chimera, CF (R&D …); test: ECL Multispot (MSD) assay, antigen spotted on plate, 10 nM Fab; blank spot 367
[14] = molecular target: T7, rHuman CD44/Fc Chimera, CF (R&D Systems Cat#3660-CD) (human, UniProt P16070 21-220); test: as above
T7 construct: Bought recombinant Fc chimera; Fc part of the bought chimera not given

[15] = molecular target: T2, rHuman ErbB2/Fc Chimera, CF (R&D …); test: as above
[16] = molecular target: T3, rHuman IGF-1 sR, CF (R&D Systems …); test: as above
[17] = molecular target: T4, rHuman P-Cadherin/Fc Chimera, CF (R&D …); test: as above
[18] = molecular target: T8, rHuman Erythropoietin R/Fc Chimera, CF (R&D Systems Cat#963-ER) (human, UniProt P19235 25-250); test: as above
T8 construct: Bought recombinant Fc chimera; also called EPO R; EPO R/Fc; Fc part of the bought chimera not given
T8 sequence (looked up): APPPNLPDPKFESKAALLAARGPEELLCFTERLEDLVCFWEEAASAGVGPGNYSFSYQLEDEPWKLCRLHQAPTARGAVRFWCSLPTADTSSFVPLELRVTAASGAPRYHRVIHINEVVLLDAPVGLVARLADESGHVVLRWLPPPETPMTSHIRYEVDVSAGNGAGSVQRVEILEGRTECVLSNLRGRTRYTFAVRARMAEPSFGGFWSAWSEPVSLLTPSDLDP

[19] = molecular target: T5, rHuman EGF R/Fc Chimera, CF (R&D …); test: as above
[20] = molecular target: T6, Recombinant Human DLL4 (R&D Systems …); test: as above
[21] = molecular target: T9, rHuman Notch-1/Fc Chimera, CF (R&D Systems Cat#3647-TK) (human, UniProt P46531 19-526); test: as above
T9 construct: Bought recombinant Fc chimera; Fc part of the bought chimera not given

[22] = molecular target: T1, rHuman HGF R/c-MET/Fc Chimera, CF (R&D …); test: ECL Multispot (MSD) assay, antigen spotted on plate, 10 nM Fab; blank spot 322
[23] = molecular target: T7, rHuman CD44/Fc Chimera, CF (R&D Systems …); test: as above
[24] = molecular target: T2, rHuman ErbB2/Fc Chimera, CF (R&D …); test: as above
[25] = molecular target: T3, rHuman IGF-1 sR, CF (R&D Systems …); test: as above
[26] = molecular target: T4, rHuman P-Cadherin/Fc Chimera, CF (R&D …); test: as above
[27] = molecular target: T8, rHuman Erythropoietin R/Fc Chimera, CF …; test: as above
[28] = molecular target: T5, rHuman EGF R/Fc Chimera, CF (R&D …); test: as above
[29] = molecular target: T6, Recombinant Human DLL4 (R&D Systems …); test: as above
[30] = molecular target: T9, rHuman Notch-1/Fc Chimera, CF (R&D …); test: as above
[31] = molecular target: T1, rHuman HGF R/c-MET/Fc Chimera, CF (R&D …); test: ECL Multispot (MSD) assay, antigen spotted on plate, 10 nM Fab; blank spot 151
[32] = molecular target: T7, rHuman CD44/Fc Chimera, CF (R&D Systems …); test: as above
[33] = molecular target: T2, rHuman ErbB2/Fc Chimera, CF (R&D …); test: as above
[34] = molecular target: T3, rHuman IGF-1 sR, CF (R&D Systems …); test: as above
[35] = molecular target: T4, rHuman P-Cadherin/Fc Chimera, CF (R&D …); test: as above
[36] = molecular target: T8, rHuman Erythropoietin R/Fc Chimera, CF …; test: as above
[37] = molecular target: T5, rHuman EGF R/Fc Chimera, CF (R&D …); test: as above
[38] = molecular target: T6, Recombinant Human DLL4 (R&D Systems …); test: as above
[39] = molecular target: T9, rHuman Notch-1/Fc Chimera, CF (R&D …); test: as above

T1 sequence (P08581 25-932, change not shown): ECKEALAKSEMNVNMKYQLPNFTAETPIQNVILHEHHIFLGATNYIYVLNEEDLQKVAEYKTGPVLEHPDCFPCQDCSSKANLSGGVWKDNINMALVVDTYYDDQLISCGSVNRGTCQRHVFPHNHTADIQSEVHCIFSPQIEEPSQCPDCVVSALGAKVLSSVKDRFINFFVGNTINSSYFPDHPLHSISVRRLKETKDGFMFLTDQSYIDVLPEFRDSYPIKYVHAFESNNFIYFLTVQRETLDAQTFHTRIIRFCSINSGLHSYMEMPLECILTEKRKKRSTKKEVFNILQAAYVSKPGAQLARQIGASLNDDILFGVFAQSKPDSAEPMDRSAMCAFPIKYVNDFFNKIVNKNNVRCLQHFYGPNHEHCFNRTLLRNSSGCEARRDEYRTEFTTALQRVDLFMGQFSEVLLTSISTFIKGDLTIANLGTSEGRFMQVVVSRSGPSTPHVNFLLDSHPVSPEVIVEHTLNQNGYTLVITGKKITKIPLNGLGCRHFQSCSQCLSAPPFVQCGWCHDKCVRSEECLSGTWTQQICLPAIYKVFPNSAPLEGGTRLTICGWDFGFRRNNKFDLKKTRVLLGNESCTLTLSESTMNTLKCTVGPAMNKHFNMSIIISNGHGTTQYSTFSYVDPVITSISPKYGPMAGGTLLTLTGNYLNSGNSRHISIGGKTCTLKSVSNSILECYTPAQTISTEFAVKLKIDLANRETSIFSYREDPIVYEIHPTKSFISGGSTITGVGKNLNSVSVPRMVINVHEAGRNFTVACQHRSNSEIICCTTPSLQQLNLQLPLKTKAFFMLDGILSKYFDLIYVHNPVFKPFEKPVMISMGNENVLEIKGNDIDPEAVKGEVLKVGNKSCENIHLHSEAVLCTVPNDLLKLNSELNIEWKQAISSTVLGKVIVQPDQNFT

B1: Fab VH1-46_IGHD6-6*01_IGHJ1*01 S102A/S103P/S104F/H111F & L6_IGKJ1*01 (Fab, V domains shown)
VH: QVQLVQSGAEVKKPGASVKVSCKASGYTFTSYYMHWVRQAPGQGLEWMGIINPSGGSTSYAQKFQGRVTMTRDTSTSTVYMELSSLRSEDTAVYYCAREEYAPFSAEYFQFWGQGTLVTVSS
VL: not shown
notes: Fab expressed in E. coli: VH joined to CH1 from Plasmid A (with His6 and Flag tags), VL joined to kappa CL from Plasmid C; also called APFF; H:APFF & L:wt
ECL signal [1]: 332
ECL signal [2]: 379
ECL signal [3]: 468
ECL signal [4]: 399
ECL signal [5]: 425
ECL signal [6]: 149000
ECL signal [7]: 237
ECL signal [8]: 292
ECL signal [9]: 357
ECL signal [10]: 277
ECL signal [11]: 329
ECL signal [12]: 126000

B2: Fab VH1-46_IGHD6-6*01_IGHJ1*01 S102A/S103P/S104F/H111F S84K & L6_IGKJ1*01 (Fab, V domains shown)
VH: B1 VH with S84K
VL: not shown
notes: Fab expressed in E. coli: VH joined to CH1 from Plasmid A (with His6 and Flag tags), VL joined to kappa CL from Plasmid C; also called APFF S84K
ECL signal [13]: 317
ECL signal [14]: 386
ECL signal [15]: 354
ECL signal [16]: 405
ECL signal [17]: 517
ECL signal [18]: 528
ECL signal [19]: 301
ECL signal [20]: 164000
ECL signal [21]: 400

B3: Fab VH1-46_IGHD6-6*01_IGHJ1*01 S102A/S103P/S104F/H111F S84R & L6_IGKJ1*01 (Fab, V domains shown)
VH: B1 VH with S84R
VL: not shown
notes: Fab expressed in E. coli: VH joined to CH1 from Plasmid A (with His6 and Flag tags), VL joined to kappa CL from Plasmid C; also called APFF S84R
ECL signal [22]: 392
ECL signal [23]: 335
ECL signal [24]: 372
ECL signal [25]: 395
ECL signal [26]: 310
ECL signal [27]: 393
ECL signal [28]: 435
ECL signal [29]: 139000
ECL signal [30]: 377

B4: Fab VH1-46_IGHD6-6*01_IGHJ1*01 S102A/S103P/S104F/H111F S84T & L6_IGKJ1*01 (Fab, V domains shown)
VH: B1 VH with S84T
VL: not shown
notes: Fab expressed in E. coli: VH joined to CH1 from Plasmid A (with His6 and Flag tags), VL joined to kappa CL from Plasmid C; also called APFF S84T
ECL signal [31]: 274
ECL signal [32]: 352
ECL signal [33]: 297
ECL signal [34]: 281
ECL signal [35]: 180
ECL signal [36]: 328
ECL signal [37]: 293
ECL signal [38]: 163000
ECL signal [39]: 372

Source: patent publication US20120316071A1 (published 2012)
